Test results published in patent publication US20120020985A1 (MEDICAL RESEARCH COUNCIL, published 2012).

Key:
Experiment in all cases: ELISA, receptor coated at 2 ug/ml, streptavidin-HRP, A405
rmIL-17RA-Fc = biological target: T1, rmIL-17RA-Fc (mouse, UniProt Q60943 32-322)
T1 construct: Bought from R&D Systems, catalog 4481-MR; also called mouse IL-17RA; IL-17A receptor; not shown: Fc portion, not described
T1 sequence (looked up): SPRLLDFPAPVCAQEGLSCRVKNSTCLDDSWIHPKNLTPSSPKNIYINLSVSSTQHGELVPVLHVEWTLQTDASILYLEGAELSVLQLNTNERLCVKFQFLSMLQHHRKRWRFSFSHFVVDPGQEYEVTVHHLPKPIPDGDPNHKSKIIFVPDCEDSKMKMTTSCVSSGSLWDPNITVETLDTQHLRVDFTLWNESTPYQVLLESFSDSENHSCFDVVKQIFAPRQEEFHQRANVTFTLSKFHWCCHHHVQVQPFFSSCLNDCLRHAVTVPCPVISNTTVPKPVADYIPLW
Protocol: (§1) In brief, ELISA plates were coated with IL-17R-family members; IL-17RA, IL-17BR, IL-17RC or IL-17RD, or IL-13Rα control, at 2 μg/ml, incubated overnight at 4° C., washed in PBS/0.05% tween and blocked in PBS/10% FCS at room temperature for 4 hrs. Biotinylated D9.2 binding was detected using streptavidin-HRP and ELISA development solution and measuring absorbance at 405 nm.
(§2) ELISA plates were coated with IL-17R-family members; IL-17RA, IL-17BR, IL-17RC, or IL-17RD, or IL-13Rα control (R&D Systems) at 2 μg/ml overnight at 4° C. before washing in PBS/0.05% tween and blocking in PBS/10% FCS at room temperature for 4 hrs. Biotinylated D9.2 was added at 1 μg/ml in PBS/10% FCS and incubated overnight at 4° C. Plates were then washed before streptavidin-HRP was added and incubated for 1 hr at room temperature. Plates were then washed a final time before adding ELISA development solution and measuring the absorbance at 405 nm.

rhIL-17RA-Fc = biological target: T2, rhIL-17RA-Fc (human, UniProt Q96F46 33-320)
T2 construct: Bought from R&D Systems, catalog 177-IR; also called human IL-17RA; IL-17A receptor; not shown: Fc portion, not described
T2 sequence (looked up): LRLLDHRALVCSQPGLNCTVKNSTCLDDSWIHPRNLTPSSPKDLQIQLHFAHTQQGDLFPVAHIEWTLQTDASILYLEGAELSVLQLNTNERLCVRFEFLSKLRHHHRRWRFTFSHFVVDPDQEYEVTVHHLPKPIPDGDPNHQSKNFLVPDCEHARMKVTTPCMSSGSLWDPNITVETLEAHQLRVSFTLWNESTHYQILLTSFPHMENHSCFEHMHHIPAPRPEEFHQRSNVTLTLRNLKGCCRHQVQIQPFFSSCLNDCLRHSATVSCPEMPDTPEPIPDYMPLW
Protocol: as §1, §2

rmIL-17RD (Sef) = biological target: T3, rmIL-17RD (Sef) (mouse, UniProt Q8JZL1 27-299, limits assumed)
T3 construct: Bought from R&D Systems, catalog 2276-ML; also called mouse IL-17RD; IL-17D receptor
T3 sequence (looked up): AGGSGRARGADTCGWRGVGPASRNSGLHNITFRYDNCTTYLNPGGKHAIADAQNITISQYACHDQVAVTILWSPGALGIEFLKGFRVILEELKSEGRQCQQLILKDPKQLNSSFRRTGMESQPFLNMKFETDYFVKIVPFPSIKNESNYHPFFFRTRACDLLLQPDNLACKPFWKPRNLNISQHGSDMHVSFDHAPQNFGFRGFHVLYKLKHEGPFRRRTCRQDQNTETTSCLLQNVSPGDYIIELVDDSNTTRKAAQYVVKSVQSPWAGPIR
Protocol: as §1, §2

rmIL-17RC = biological target: T4, rmIL-17RC (mouse, UniProt Q8K4C2 22-464, limits assumed)
T4 construct: Bought from R&D Systems, catalog 2270-ML; also called mouse IL-17RC; IL-17C receptor
T4 sequence (looked up): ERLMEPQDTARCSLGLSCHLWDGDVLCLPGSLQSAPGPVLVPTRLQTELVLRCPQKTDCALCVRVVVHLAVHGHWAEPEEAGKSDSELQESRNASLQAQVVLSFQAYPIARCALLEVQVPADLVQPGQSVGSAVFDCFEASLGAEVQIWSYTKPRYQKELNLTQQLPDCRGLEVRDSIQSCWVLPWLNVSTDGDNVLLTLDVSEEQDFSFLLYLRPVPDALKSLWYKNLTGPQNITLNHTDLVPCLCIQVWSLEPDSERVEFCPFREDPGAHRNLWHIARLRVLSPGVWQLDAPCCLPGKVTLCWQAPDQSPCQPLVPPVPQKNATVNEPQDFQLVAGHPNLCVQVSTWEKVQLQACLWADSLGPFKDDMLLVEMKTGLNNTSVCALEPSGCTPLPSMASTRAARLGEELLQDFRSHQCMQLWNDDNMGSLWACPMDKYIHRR
Protocol: as §1, §2

rhIL-17RD (Sef) = biological target: T5, rhIL-17RD (Sef) (human, UniProt Q8NFM7 27-299, limits assumed)
T5 construct: Bought from R&D Systems, catalog 2275-IL; also called human IL-17RD; IL-17D receptor
T5 sequence (looked up): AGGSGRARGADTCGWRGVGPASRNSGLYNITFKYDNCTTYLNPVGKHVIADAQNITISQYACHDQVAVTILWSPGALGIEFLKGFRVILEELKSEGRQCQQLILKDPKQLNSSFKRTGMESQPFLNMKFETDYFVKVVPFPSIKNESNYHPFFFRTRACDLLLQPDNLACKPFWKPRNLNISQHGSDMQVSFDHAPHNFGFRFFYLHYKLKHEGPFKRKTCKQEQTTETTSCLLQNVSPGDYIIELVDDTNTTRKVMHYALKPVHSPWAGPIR
Protocol: as §1, §2

rhIL-17RC = biological target: T6, rhIL-17RC (human, UniProt Q8NAC3-2 21-467, limits assumed)
T6 construct: Bought from R&D Systems, catalog 2269-IL; also called human IL-17RC; IL-17C receptor
T6 sequence (looked up): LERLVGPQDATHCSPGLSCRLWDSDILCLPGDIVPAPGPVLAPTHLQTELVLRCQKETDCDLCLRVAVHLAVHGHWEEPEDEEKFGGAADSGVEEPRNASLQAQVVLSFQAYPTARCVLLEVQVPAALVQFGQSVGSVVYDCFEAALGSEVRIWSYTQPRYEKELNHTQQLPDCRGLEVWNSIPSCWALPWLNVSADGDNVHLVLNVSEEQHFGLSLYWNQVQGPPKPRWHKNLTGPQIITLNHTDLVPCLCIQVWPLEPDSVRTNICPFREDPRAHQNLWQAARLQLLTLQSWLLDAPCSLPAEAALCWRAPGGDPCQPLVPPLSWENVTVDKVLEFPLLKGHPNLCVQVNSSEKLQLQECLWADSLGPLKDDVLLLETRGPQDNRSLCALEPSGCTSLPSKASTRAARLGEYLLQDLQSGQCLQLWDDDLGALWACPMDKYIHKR
Protocol: as §1, §2

B1: anti-IL-17BR clone D9.2 (antibody, V domains shown)
VH: QVQLQQPGAELVRPGASVKLSCKTSGYTFISYWMNWVKQGGPEQGLEWIGRIDPYDSEIQYNQKFKDKAILTVDKSSSAAYMQLISLTSEDSAVYYCARSGGFDWFAYWGQGTLVTVS
VL: DIQMTQSPASLSVSVGETVTITCRASENINSNLAWYQQKKGKSPQLLVYDVTNLADGVPSRFSGSGSGTQYSLKINSLQSEDFGSYYCQHFWRPPYTFGGGTNLEIK
notes: Mouse monoclonal from a hybridoma; heavy chain amplified with an IgG1 constant region primer and light chain with a kappa primer (mouse IgG1 kappa); also called mouse monoclonal antibody D9.2; D9.2 antibody clone
B1: no binding (tested: 1 ug/ml biotinylated D9.2) (rmIL-17RA-Fc); no binding (tested: 1 ug/ml biotinylated D9.2) (rhIL-17RA-Fc); no binding (tested: 1 ug/ml biotinylated D9.2) (rmIL-17RD (Sef)). B1: no binding (tested: 1 ug/ml biotinylated D9.2) (rmIL-17RC); no binding (tested: 1 ug/ml biotinylated D9.2) (rhIL-17RD (Sef)); no binding (tested: 1 ug/ml biotinylated D9.2) (rhIL-17RC).
